Laboratory results reported in patent US20180127503A1 (EUREKA THERAPEUTICS, published 2018).
No end group written: not given here. *: point of attachment. Biotin = O=C1N[C@H]2[C@H](CS[C@H]2CCCCC(=O)*)N1

T1: biotin-SGSG-KTITATGVLFVRLGP ROR2 array peptide (human)
T1 construct: Peptide of the overlapping ROR2 peptide array, immobilised on streptavidin plates
T1 peptide: Biotin-SGSGKTITATGVLFVRLGP


Experiments:
[1] = biological target: T2, human ROR2 expressed on the cell surface (human, UniProt Q01974 34-943); assay: flow cytometry, CRL1427 cells (osteosarcoma); design: unit not given here
T2 construct: Endogenous ROR2 of human tumour cell lines; also called cell surface ROR2; ROR2 on tumour cell lines
Procedure: (§1) Human tumour cell lines were authenticated using short tandem repeat (STR) analysis. They were cultured in RPMI1640 (Cellgro) supplemented with 10% fetal bovine serum (FBS, Life Technologies) at 37° C. in a 5% CO₂ humidified incubator. They were harvested, washed in PBS and reacted with ROR2-IgG at 1 ug/10⁶ tumour cells on ice for an hour. #901-IgG was used as a negative control at the same dose. After washing, a secondary PE-conjugated goat anti-human IgG, Fcγ fragment specific (1:100, Jackson ImmunoResearch) was added for another 30 min incubation. Staining was analyzed on a FACSCalibur (BD Biosciences). ROR2 (full length) antibody binding towards multiple cancer cell lines were compared with Rituxan and Herceptin antibodies. The cancer cell lines were derived from breast cancer, colorectal cancer, mesothelioma, hepatocellular carcinoma, ovarian cancer, osteosarcoma, neuroblastoma, etc. ROR2 #90 antibody could recognize most of the tumour cells tested, and in some cases, the binding intensity was higher than Herceptin (see Tables 8 to 10).

[2] = biological target: T2, human ROR2 expressed on the cell surface; assay: flow cytometry, SKNSH cells (neuroblastoma); design: unit not given here
Procedure: as §1

[3] = biological target: T2, human ROR2 expressed on the cell surface; assay: flow cytometry, SKMEL28 cells (melanoma); design: reference not given here
Procedure: as §1

[4] = biological target: T2, human ROR2 expressed on the cell surface; assay: flow cytometry, HTB63 cells (melanoma); design: unit not given here
Procedure: as §1

[5] = biological target: T2, human ROR2 expressed on the cell surface; assay: flow cytometry, SKOV3 cells (ovarian CA); design: unit not given here
Procedure: as §1

[6] = biological target: T2, human ROR2 expressed on the cell surface; assay: flow cytometry, TC32 cells (EW/PNET); design: unit not given here
Procedure: as §1

[7] = biological target: T2, human ROR2 expressed on the cell surface; assay: flow cytometry, H524 cells (SCLC); design: reference not given here
Procedure: as §1

[8] = biological target: T2, human ROR2 expressed on the cell surface; assay: flow cytometry, MCF7-Luc cells (breast CA); design: unit not given here
Procedure: as §1

[9] = biological target: T2, human ROR2 expressed on the cell surface; assay: flow cytometry, BE(1)N cells (neuroblastoma); design: unit not given here
Procedure: as §1

[10] = biological target: T2, human ROR2 expressed on the cell surface; assay: flow cytometry, H69 cells (SCLC); design: unit not given here
Procedure: as §1

[11] = biological target: T2, human ROR2 expressed on the cell surface; assay: flow cytometry, U251 LUC cells (glioma); design: unit not given here
Procedure: as §1

[12] = biological target: T2, human ROR2 expressed on the cell surface; assay: flow cytometry, HTB27 cells (breast CA); design: unit not given here
Procedure: as §1

[13] = biological target: T2, human ROR2 expressed on the cell surface; assay: flow cytometry, M14 cells (melanoma); design: reference not given here
Procedure: as §1

[14] = biological target: T2, human ROR2 expressed on the cell surface; assay: flow cytometry, OUMS 27 cells (chondrosarcoma); design: unit not given here
Procedure: as §1

[15] = biological target: T2, human ROR2 expressed on the cell surface; assay: flow cytometry, NB5 cells (neuroblastoma); design: unit not given here
Procedure: as §1

[16] = biological target: T1, biotin-SGSG-KTITATGVLFVRLGP ROR2 array …; assay: ELISA on biotinylated ROR2 peptide array
Procedure: To better understand the structural basis of the ROR2-specific antibody as a drug candidate, a standard epitope mapping was performed by ELISA against a ROR2 peptide array. The peptide array covers the whole length of the ROR2 protein through 96 overlapping peptides ([…] each with 4 amino acids worth of space between them). The peptides were biotinlyated at the N-terminal to immobilize them onto streptavidin ELISA plates. A spacer (SGSG) was used to provide flexibility. The space was inserted at the N-terminal biotin-SGSG-15 amino acids. ELISA assays were performed with the full length ROR2 antibodies as the primary antibody and an anti-human Fc AP-conjugated antibody was used for detection. […] FIG. 12 indicates the epitope position in ROR2 primary structure. This sequence is not shared by ROR1 and not found in human proteins by PBLAST.

T2 sequence (Q01974 34-943 limits assumed): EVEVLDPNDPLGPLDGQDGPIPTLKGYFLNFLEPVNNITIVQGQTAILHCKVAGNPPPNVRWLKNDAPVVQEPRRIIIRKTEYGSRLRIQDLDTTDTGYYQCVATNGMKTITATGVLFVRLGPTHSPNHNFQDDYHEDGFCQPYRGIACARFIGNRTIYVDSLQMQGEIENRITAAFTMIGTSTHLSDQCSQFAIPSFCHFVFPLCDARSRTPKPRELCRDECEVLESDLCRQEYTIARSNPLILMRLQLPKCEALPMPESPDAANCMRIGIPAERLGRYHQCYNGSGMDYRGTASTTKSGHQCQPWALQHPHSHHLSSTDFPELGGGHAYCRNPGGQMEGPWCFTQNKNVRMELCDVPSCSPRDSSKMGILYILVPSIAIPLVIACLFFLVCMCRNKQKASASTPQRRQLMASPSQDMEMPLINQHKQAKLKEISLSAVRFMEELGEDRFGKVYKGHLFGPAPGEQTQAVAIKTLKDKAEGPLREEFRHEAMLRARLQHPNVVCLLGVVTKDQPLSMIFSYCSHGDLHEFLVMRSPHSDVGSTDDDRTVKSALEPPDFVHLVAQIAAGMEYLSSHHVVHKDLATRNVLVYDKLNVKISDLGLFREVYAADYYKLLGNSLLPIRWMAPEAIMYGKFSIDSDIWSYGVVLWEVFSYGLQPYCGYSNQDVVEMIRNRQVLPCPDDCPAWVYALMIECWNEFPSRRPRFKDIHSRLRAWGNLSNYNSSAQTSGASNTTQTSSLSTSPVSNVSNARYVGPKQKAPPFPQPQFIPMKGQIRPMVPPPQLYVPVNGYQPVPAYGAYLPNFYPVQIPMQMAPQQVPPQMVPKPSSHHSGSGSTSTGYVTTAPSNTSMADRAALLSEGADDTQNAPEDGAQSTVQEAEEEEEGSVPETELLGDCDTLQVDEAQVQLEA

Row | Binder | binding intensity [1] | binding intensity [2] | binding intensity [3] | binding intensity [4] | binding intensity [5] | binding intensity [6] | binding intensity [7] | binding intensity [8] | binding intensity [9] | binding intensity [10] | binding intensity [11] | binding intensity [12] | binding intensity [13] | binding intensity [14] | binding intensity [15] | binding result [16]
1 | ROR2-90 full length human IgG1 antibody (antibody, V domains shown, also called clone #90; antibody #90) VH: EVQLVESGPGLVKPSQTLSLTCTVSGGSISSGGYYWSWIRQHPGKGLEWIGYIYYSGSTYYNPSLKSRVTISVDTSKNQFSLKLSSVTAADTAMYYCARGGLYWTYSQDVWGQGTLVTVSS VL: QPVLTQPPSASGTPGQRVTISCSGSSSNIGSDYVSWYQQLPGTAPKLLIYRNDQRPSGVPDRFSGSKSGTSASLAISGLRSEDEADYYCVAWDDSLSGYVFGSGTKVTVLG | 45 | 105 | 26 | 27 | 246 | 70 | 20 | 190 | 302 | 15 | 27 | 125 | 17 | 78 | 47 | binds
2 | ROR2-27 full length human IgG1 antibody (antibody, V domains shown, also called clone #27; clone #027 IgG1) VH: QVQLVESGAEVKKPGESLKISCKASGYSFSNYWIGWVRQMPGKGLEWMGIIYPDDSDTRYSPSFQGQVTISADKSISTAYLQWYSLKVADTAKYYCVRPRGAFDIWGQGTTVTVSS VL: QSVLTQPPSVSGAPGQRVTISCTGSSSNIGAGHAVHWYQQLPGTAPKLLIYDNANRPSGVPDRFSGSQSGTSASLAITGLQTGDEADYYCGTWDDSPSAYVFGTGTKVTVLG | 11 | 8 | 8 | 8 | 36 | 20 | 16 | 74 | 244 | 24 | 9 | 11 | 5 | 48 | 20 | 
3 | ROR2-23 full length human IgG1 antibody (antibody, V domains shown, The light chain of clone 023 is labelled kappa; also called clone #23; clone #023 IgG1) VH: EVQLVQSGAEVKKPGESLKISCQGSGYRFSKYWIGWVRQMPGKGLEWMGIIYPGDSDTRYSPSFQGQVTISADKSISTAYLQWSSLKASDTAMYYCARSFSSFIYDYWGQGTLVTVSS VL: ETTLTQSPGTLSVSPGERATLSCRASQSVSSNLAWYQQKRGQAPRLLIYGASTRATGIPVRFSGSGSGTEFTLTISRLEPEDFAVYYCQQYGRSPLTFGGGTKVDIKR | 30 | 170 | 20 | 16 | 116 | 37 | 28 | 111 | 273 | 9 | 14 | 58 | 9 | 71 | 32 | 

More lines, now with the values ahead:

Row | binding intensity [1] | binding intensity [2] | binding intensity [3] | binding intensity [4] | binding intensity [5] | binding intensity [6] | binding intensity [7] | binding intensity [8] | binding intensity [9] | binding intensity [10] | binding intensity [11] | binding intensity [12] | binding intensity [13] | binding intensity [14] | binding intensity [15] | binding result [16] | Binder
4 | 54 | 141 | 20 | 16 | 42 | 17 | 32 | 42 | 352 | 131 | 120 | 24 | 12 | 53 | 56 |  | ROR2-241 full length human IgG1 antibody (antibody, V domains shown) VH: EVQLVQSGAEVKKPGASVKVSCKASGYTFTNYYIHWVRQAPGQGLEWMGIINPTSGRTRYAQRFQGRVTMTRDTSTNTVYMDLSSLRSEDTAMYYCARSGYYWGVNGDQWGQGTLVTVSS VL: SYELTQPLSVSVALGQTARITCGGNNIGSKNVHWYQQKPGQAPVLVIYRDSNRPSGIPERFSGSNSGNTATLTISRAQAGDEADYYCQVWDSSIVVFGGGTKLTVLG
5 | 4 | 113 | 4 | 5 | 5 | 4 | 7 | 39 | 279 | 9 | 5 | 7 | 4 | 6 | 17 |  | ROR2-240 full length human IgG1 antibody (antibody, V domains shown, also called clone #240 IgG1) VH: QITLKESGPELVKPTQTLTLTCTFSGFSLSTSGMSVSWIRQPPGKALEWLARIDWDDDKYYSTSLKTRLTISKDTSKNQVVLTMTNTDPVDTATYYCARGFYLAYGSYDSWGQGTLVTVSS VL: QSALTQPASVSGSPGQSITISCTGTSGDVGGYNYVSWYQHHPGKAPKLIIYDVNKRPSGFSDRFSGSKSGNTASLTISGLQAEDEADYYCSSYTSTSTVFGGGTKLTVLG
